Assay results taken from US20170058319A1, “NANOSENSOR FOR ASSESSING THROMBIN INHIBITORS” (VIRGINIA COMMONWEALTH UNIVERSITY, priority 2014, published 2017).

Key:
[1] = molecular target: Au-TH nanoprobe (gold nanoparticles covalently linked to bovine α-thrombin) (bovine) (UniProt P00735); experiment: cell-based or functional assay
[2] = molecular target: Au-TH nanoprobe (gold nanoparticles covalently linked to bovine α-thrombin) (bovine) (UniProt P00735); experiment: displacement of HirP from the Au-TH nanoprobe by AT at 1 µM, 1 h incubation
[3] = molecular target: Au-TH nanoprobe (gold nanoparticles covalently linked to bovine α-thrombin) (bovine) (UniProt P00735); experiment: displacement of HirP from the Au-TH nanoprobe by AT at 10 µM, 1 h incubation
[4] = molecular target: Au-TH nanoprobe (gold nanoparticles covalently linked to bovine α-thrombin) (bovine) (UniProt P00735); experiment: displacement of HirP from the Au-TH nanoprobe by AT at 100 µM, 1 h incubation

Sequence of Antithrombin (AT) (P01008 33-464): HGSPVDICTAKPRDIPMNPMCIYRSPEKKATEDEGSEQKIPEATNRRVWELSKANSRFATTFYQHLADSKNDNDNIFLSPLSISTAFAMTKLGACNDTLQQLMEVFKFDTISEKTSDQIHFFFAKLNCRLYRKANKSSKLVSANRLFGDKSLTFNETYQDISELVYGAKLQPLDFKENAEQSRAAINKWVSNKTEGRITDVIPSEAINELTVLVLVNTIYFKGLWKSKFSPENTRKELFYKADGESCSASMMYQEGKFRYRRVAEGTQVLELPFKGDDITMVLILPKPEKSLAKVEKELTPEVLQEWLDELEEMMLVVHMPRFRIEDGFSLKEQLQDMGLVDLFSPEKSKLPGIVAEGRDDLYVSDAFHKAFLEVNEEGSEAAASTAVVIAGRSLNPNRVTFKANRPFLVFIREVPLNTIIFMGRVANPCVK

Antithrombin (AT)
neutralization of surface bound thrombin (chromogenic substrate hydrolysis) [1]: < 60% | increase in fluorescence at 525 nm [2]: 40% | increase in fluorescence at 525 nm [3]: 25% | increase in fluorescence at 525 nm [4]: 20%
